Patent US20240247301A1, “DIAGNOSTIC ASSAY FOR CLASSIC INBORN GALACTOSEMIA” (Ohio State Innovation Foundation, priority 2022, published 2024)

Key:
[1] = Duarte GalT-YidA coupled assay (malachite green); type: biochemical; settings: recombinant Duarte GalT, substrate Gal-1-P
Method: The assay contained 25 mM 4-(2-hydroxyethyl)-1-piperazineethanesulfonic acid (HEPES) (pH 8.0), 3 mM MgCl2, 2 mM DTT, 1 mM UDP-glucose (Sigma-Aldrich), 3 mM YidA, and varying amounts of His6-tagged Duarte GalT: 0.25 mM GalT for ≤0.1-mM Gal-1P, and 0.1 mM GalT for ≥0.1-mM Gal-1P (Table 3). […] These 2-μL aliquots were added to a 384-well plate which were pre-dispensed to test wells 18 μL of water and 5 μL of malachite green reagent. […] These specific time courses (using four time points; Table 3) and the appropriate dilutions were performed to maintain product formation in the linear range. To determine the Km and kcat values, the initial velocity calculated at each substrate concentration was subject to the Michaelis-Menten curve-fitting option in Kaleidagraph (Synergy Software).

[2] = Duarte GalT variant; cited from earlier work
[3] = YidA substrate-specificity test, initial velocity for Glc-1-P versus Gal-1-P; type: biochemical, Salmonella; settings: 3 mM Glc-1-P or 3 mM Gal-1-P, 3 mM MgCl2
Text: FIGS. 1A-B show substrate-recognition bias of YidA for Glc-1-P over Gal-1P. […] The data represent mean±standard error determined from two independent trials. […] The Km and kcat values listed represent the mean±standard error from two independent trials.
Nearly homogeneous recombinant Salmonella YidA by overexpressing it in E. coli SixPack cells were obtained (Lipinszki et al. 2018) (FIG. 3A). N-terminal fusions with a small ubiquitin-like modifier (SUMO) domain were engineered to enhance solubility (Marblestone et al. 2006) and a His6 tag to facilitate affinity purification (FIG. 3A). To measure the phosphatase activity of YidA, malachite green, a cationic dye that forms with free orthophosphate and molybdate a green-colored complex (Abs620) was used; this assay can measure nanomolar concentrations of orthophosphate (FIG. 4). Since YidA is a Mg^2+-dependent phosphatase, its activity with Glc-1-P in the presence of 0-5 mM MgCl2 was first tested and determined that 3 mM MgCl2 was optimal (FIG. 5).

[4] = YihX kinetic studies (malachite green phosphate assay); type: biochemical, Salmonella; settings: Glc 1-P versus 6-P-F-Asp
Text: Top panel reproduced from Monroy, et al., 2013.
The Km and kcat values are listed here with their respective curve-fit errors (see summary in Table 4).
Salmonella YihX was purified after overexpression in E. coli BL21 (DE3) pLysS cells. His6-YihX was purified under denaturing conditions using immobilized metal-affinity chromatography. Following purification, YihX was refolded by stepdown dialysis to remove the denaturant. […] YihX offers the basis for a simpler and more sensitive assay to diagnose classic galactosemia.

[5] = earlier qualitative observation (Kuznetsova et al. 2006); cited from earlier work

B1: Duarte GalT: recombinant His6-tagged Duarte variant of galactose-1-phosphate uridylyl transferase, clone from Addgene (GALTA-c001) (protein, UniProt P07902 1-379, looked up, variant N314D)
Galactose-1-phosphate …: MSRSGTDPQQRQQASEADAAAATFRANDHQHIRYNPLQDEWVLVSAHRMKRPWQGQVEPQLLKTVPRHDPLNPLCPGAIRANGEVNPQYDSTFLFDNDFPALQPDAPSPGPSDHPLFQAKSARGVCKVMCFHPWSDVTLPLMSVPEIRAVVDAWASVTEELGAQYPWVQIFENKGAMMGCSNPHPHCQVWASSFLPDIAQREERSQQAYKSQHGEPLLMEYSRQELLRKERLVLTSEHWLVLVPFWATWPYQTLLLPRRHVRRLPELTPAERDDLASIMKKLLTKYDNLFETSFPYSMGWHGAPTGSEAGANWDHWQLHAHYYPPLLRSATVRKFMVGYEMLAQAQRDLTPEQAAERLRALPEVHYHLGQKDRETATIA
**Q.** With B1 as the molecule, how does the “increase in kcat/Km, YidA-based assay versus PGM-G6PDH coupled assay” value [1] read?
**A.** Its value is ~2.5 fold.

**Q.** What about the “activity relative to wild-type GalT” value [2] of the same molecule?
**A.** The value was ~25%.

B2: YidA: recombinant Salmonella sugar-phosphate phosphatase of the HAD superfamily, overexpressed in E. coli SixPack cells; SUMO tag removed unless stated (protein, listed as Salmonella typhimurium)
chain: MAIKLIAIDMDGTLLLPDHTISPAVKNAIAAAREKGVNVVLTTGRPYAGVHSYLKELHMEQPGDYCITYNGALVQKAGDGSTVAQTALSYDDYRYLEKLSREVGSHFHALDRNTLYTANRDISYYTVHESYVATIPLVFCEAEKMDPNTQFLKVMMIDEPAVLDRAIARIPAEVKEKYTVLKSAPYFLEILDKRVNKGTGVKSLVEALGIKPEEVMAIGDQENDIAMIEYAGMGVAMDNAIPSVKEVANFVTKSNLEDGVAWAIEKFVLNPDHSSGHFPAR
modifications: Description of sequence: YidA
notes: recombinant Salmonella sugar-phosphate phosphatase of the HAD superfamily, overexpressed in E. coli SixPack cells; SUMO tag removed unless stated
**Q.** For B2, which “preference for Glc-1-P over Gal-1-P (initial velocity)” value [3] is on record?
**A.** The value was ≥ 40 fold.

B3: YihX: recombinant Salmonella HAD-like sugar-phosphate phosphatase, overexpressed in E. coli BL21 (DE3) pLysS cells and refolded (protein, listed as Salmonella typhimurium)
chain: MLYIFDLGNVIVDIDFNRVLGVWSDLSRVPLASLKQKFTMGETFHQHERGEITDEAFAEAFCHEMALSLSYEQFAHGWQAVFVGLRPEVIAIMHKLREQGHRVVVLSNTNRLHTHFWPEEYPEVRAAADHIYLSQDLGMRKPEARIYQHVLQKEGFSAADAVFFDDNADNIEGANQLGITSILVKDKATIPDYFAKLLC
modifications: Description of sequence: YihX
**Q.** For B3, which “substrate hydrolysis (qualitative)” value [4] is on record?
**A.** Its value is “hydrolyzes glucose 1-phosphate (Glc 1-P) but not 6-P-F-Asp”.

B4: E. coli YidA: E. coli YidA phosphatase documented in a previous study (Kuznetsova et al. 2006) (protein, UniProt P0A8Y5 1-270, looked up)
Sugar phosphatase YidA: MAIKLIAIDMDGTLLLPDHTISPAVKNAIAAARARGVNVVLTTGRPYAGVHNYLKELHMEQPGDYCITYNGALVQKAADGSTVAQTALSYDDYRFLEKLSREVGSHFHALDRTTLYTANRDISYYTVHESFVATIPLVFCEAEKMDPNTQFLKVMMIDEPAILDQAIARIPQEVKEKYTVLKSAPYFLEILDKRVNKGTGVKSLADVLGIKPEEIMAIGDQENDIAMIEYAGVGVAMDNAIPSVKEVANFVTKSNLEDGVAFAIEKYVLN
**Q.** For B4, which “dephosphorylation of Gal-1-P compared to Glc-1-P (qualitative)” value [5] is on record?
**A.** The value was “negligible dephosphorylation of Gal-1-P compared to Glc-1-P”.
